Our source for the Kd values is patent US20230303715A1.

Among the targets are FcγRIIaR (UniProt P12318); FcγRIIaH (UniProt P12318); FcγRIIb (UniProt P31994); FcγRI (UniProt P12314).
Assay in all cases: SPR Biacore, Ab on HER2 chip
(In general: SPR reads the build-up and loss of mass on a sensor chip optically.)

FcγRIIaR, sequence (P12318 34-217 H167R limits assumed): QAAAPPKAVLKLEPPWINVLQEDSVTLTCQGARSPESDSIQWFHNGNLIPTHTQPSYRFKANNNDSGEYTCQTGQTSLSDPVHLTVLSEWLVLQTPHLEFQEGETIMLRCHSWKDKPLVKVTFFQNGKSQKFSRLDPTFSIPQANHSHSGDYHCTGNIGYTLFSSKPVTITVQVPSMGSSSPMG
FcγRI, sequence (P12314 16-292 limits assumed): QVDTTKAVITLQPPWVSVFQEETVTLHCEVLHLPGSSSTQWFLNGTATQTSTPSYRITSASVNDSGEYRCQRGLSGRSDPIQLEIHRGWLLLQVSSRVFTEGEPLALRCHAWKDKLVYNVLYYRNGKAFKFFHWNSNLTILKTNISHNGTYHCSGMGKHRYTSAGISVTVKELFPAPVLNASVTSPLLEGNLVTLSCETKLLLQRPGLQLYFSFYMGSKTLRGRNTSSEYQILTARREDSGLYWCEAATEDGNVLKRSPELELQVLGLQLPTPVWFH
FcγRIIb, sequence (P31994 43-217 limits assumed): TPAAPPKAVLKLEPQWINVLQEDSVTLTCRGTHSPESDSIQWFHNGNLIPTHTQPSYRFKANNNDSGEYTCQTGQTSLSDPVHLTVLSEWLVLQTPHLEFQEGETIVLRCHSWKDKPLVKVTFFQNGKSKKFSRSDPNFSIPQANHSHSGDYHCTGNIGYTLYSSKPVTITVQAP
FcγRIIaH, sequence (P12318 34-217 limits assumed): as the sequence (P12318 34-217 H167R limits assumed) above, with R134H counted along it

B1: one-armed trastuzumab antibody, Scaffold 9, variant v27319 (L242C_I336C/V308I) (antibody, part only; not given: Trastuzumab Fab arm, not shown: another chain or arm of the molecule)
Fc 1: APEFLNGPSVFCFPPKPKDTLMISRTPEVTCVVVDVSQEDPEVKFNWYVDGVEVHNAKTKPREEQYNSTYRVVSVLTILHQDWLNGKEYKCKVSNKGLPKSIEKTCSKAKGQPREPQVYVYPPSRDELTKNQVSLTCLVKGFYPSDIAVEWESNGQPENNYKTTPPVLDSDGSFALVSKLTVDKSRWQQGNVFSCSVMHEALHNHYTQKSLSLSPGK
Fc 2: APELLDGPDVFCFPPKPKDTLMISRTPEVTCVVVDLADEDPEVKFNWYVDGVEVHNAKTKPREEQYNSTYRVVSVLTILHQDWLNGKEYKCKVSNKALPAPIEKTCSKAKGQPREPQVYVLPPSRDELTKNQVSLLCLVKGFYPSDIAVEWESNGQPENNYLTWPPVLDSDGSFFLYSKLTVDKSRWQQGNVFSCSVMHEALHNHYTQKSLSLSPGK
modifications: Engineered intrachain disulphide C242-C336 in each Fc chain.
As for B1, the Kd was determined as 0.0614 µM with FcγRIIaR, 0.575 µM in the test with FcγRIIaH, 0.0155 µM with FcγRIIb and 0.000532 µM with FcγRI.

The Kd is a measure of binding affinity in units of concentration. A low value points to a tighter complex.
